{"source": "patent US9145555B2", "about": "“Integrated—ligand-responsive microRNAs” (California Institute of Technology, priority 2009, dated 2015)", "molecules": {"B1": {"name": "xa2: SEQ ID NO. 32; GFP-targeting miRNA with xanthine aptamer binding core and loop, inverted (nucleic acid)", "chain": "TCTAGAACGGGTCCGAGGTCGACGTGAGCGAGCACAAGCTGGAGTACAACTATAGTGAAGCCACAGATGTATAGTTGTACTCCAGCTTGTGCCCGCCTACGTGTATTACCCAGGGCCC", "modifications": "expressed or natural sequence"}, "B2": {"name": "tc1: SEQ ID NO. 30; GFP-targeting miRNA harboring the tetracycline aptamer (nucleic acid)", "chain": "TCTAGAACGGGTCCTAAAACATACCGTGAGCGAGCACAAGCTGGAGTACAACTATAGTGAAGCCACAGATGTATAGTTGTACTCCAGCTTGTGCCTGCCTACGGAGAGGTGAAGAATACGACCACCTAGGGCCC", "modifications": "miRNA", "notes": "30; GFP-targeting miRNA harboring the tetracycline aptamer"}, "B3": {"name": "th2: SEQ ID NO. 25; th1 altered to target a different location in the GFP transcript (nucleic acid)", "chain": "TCTAGAACGGGTCCTGATACCAGCGTGAGCGCCAAGAAGATGGTGCGCTCCTGGAGTGAAGCCACAGATGTCCAGGAGCGCACCATCTTCTTGTCGCCTACGCCCTTGGCAGCAGGGCCC", "modifications": "expressed or natural sequence", "notes": "25; th1 altered to target a different location in the GFP transcript"}, "B4": {"name": "xa1: SEQ ID NO. 31; GFP-targeting miRNA with the binding core of the xanthine aptamer (nucleic acid)", "chain": "TCTAGAACGGGTCCGTGTATTACCTGAGCGAGCACAAGCTGGAGTACAACTATAGTGAAGCCACAGATGTATAGTTGTACTCCAGCTTGTGCCCGCCTAGGTCGACGGGCCC", "modifications": "expressed or natural sequence"}, "B5": {"name": "wt: SEQ ID NO. 18; GFP-targeting miRNA with basal segments similar to the natural miRNA miR-30a, control (nucleic acid)", "chain": "TCTAGAGTTTGACAGTGAGCGAGCACAAGCTGGAGTACAACTATAGTGAAGCCACAGATGTATAGTTGTACTCCAGCTTGTGCCTGCCTACTGCCTCGGACTGAATTCATAGGGCC"}, "B6": {"name": "m1: SEQ ID NO. 19; GFP-targeting control miRNA with a large bulge in the basal segments, no aptamer (nucleic acid)", "chain": "TCTAGAACGGGAAGTAATTACAGTGAGCGAGCACAAGCTGGAGTACAACTATAGTGAAGCCACAGATGTATAGTTGTACTCCAGCTTGTGCCTGCCTACTGCCACATAGGGCCC"}, "B7": {"name": "th1′: SEQ ID NO. 24; theophylline-responsive non-targeting miRNA, scrambled mature miRNA sequence (nucleic acid)", "chain": "TCTAGAACGGGTCCTGATACCAGCGTGAGCGAGCACAAGCTATCAACATGAGGTAGTGAAGCCACAGATGTACCTCATGTTGATAGCTTGTGCCCGCCTACGCCCTTGGCAGCAGGGCCC"}, "B8": {"name": "m2: SEQ ID NO. 20; GFP-targeting control miRNA with varied bulge size, no aptamer (nucleic acid)", "chain": "TCTAGAACGGGAAACACAGTGAGCGAGCACAAGCTGGAGTACAACTATAGTGAAGCCACAGATGTATAGTTGTACTCCAGCTTGTGCCTGCCTACTGCCTCGGGCCC"}}, "tested_on": "transcript encoding the green fluorescent protein (GFP) in HEK 293 cells stably expressing GFP", "assay": "Cell culture assay for miRNA activity (GFP silencing, transient transfection, flow cytometry)", "type": "cell-based, human", "conditions": "for response of GFP levels to hypoxanthine: 5 mM hypoxanthine; for GFP silencing: single copy, absence of ligand; for response of GFP levels to tetracycline: 100 μM tetracycline; for response of GFP levels to theophylline: transient transfection with varying theophylline concentrations", "description": "To examine the relationship between bulge size in the basal segments and gene silencing, we developed a general cell culture assay for miRNA activity (FIG. 1D). miRNAs designed to target a transcript encoding the green fluorescent protein (GFP) were inserted into the 3′ untranslated region (UTR) of a constitutively-expressed transcript encoding the fluorescent protein DsRed-Express. Plasmid DNA encoding the DsRed-Express construct was transfected into HEK 293 cells stably expressing GFP. The level of miRNA-mediated gene silencing was determined by flow cytometry analysis, where DsRed-Express levels were used to distinguish between transfected and untransfected cells. Using the cell culture assay, miRNAs with the same bulges as in the in vitro experiments were tested for silencing efficiency. […] Therefore, proper Drosha processing and gene silencing correlate with the size of the bulge in the miRNA basal segments.\n293 and Flp-In-293 cells were maintained in DMEM supplemented with 10% FBS at 37° C. in a 5% CO2—humidified incubator. Transient transfections were conducted with Fugene 6 (Roche) according to the manufacturer's instructions one day after seeding. Immediately prior to transfection, the media was supplemented with the appropriate ligand at the specified concentration. Ligand concentrations were selected to maximize the regulatory response without severely compromising cell viability over the course of the transient assays. The media was replaced two days post-transfection. Three days post-transfection, the cells were trypsinized and subjected to flow cytometry analysis on a Cell Lab Quanta SC MPL (Beckman Coulter) and the resulting data was analyzed using the Flowjo software (Tree Star). Cells were initially gated for viability by electronic volume and side scatter. GFP and DsRed fluorescence of viable cells were measured through a 525 nm and […] band pass filter, respectively, after excitation with a 488 nm laser. Moderate to high DsRed levels served as a transfection control to gate between transfected and untransfected cells. Transfected cells could be distinguished from untransfected cells with this method even when four miRNAs were present in the 3′ UTR of the DsRed-Express encoding transcript (data not shown). GFP levels were calculated as the median fluorescence of the transfected population divided by that of the untransfected population (Beisel et al., 2008). This normalization approach corrected for the bias from pleiotropic effects associated with each small molecule. All ratios were normalized such that the value for DsRed-Express lacking a miRNA under the same conditions was set to 100%."}
{"molecule": "Cn1c(=O)c2c(ncn2C)n(C)c1=O", "note": "[caffeine, reference compound]", "values": [{"measurement": "response of GFP silencing to caffeine", "setting": "1 mM caffeine, miRNAs th1 and wt", "result": "insensitive"}]}
{"molecule": "B1", "values": [{"measurement": "response of GFP levels to hypoxanthine", "result": "hypoxanthine-dependent increase in GFP levels"}, {"measurement": "GFP silencing", "result": "substantial GFP silencing"}]}
{"molecule": "B2", "values": [{"measurement": "response of GFP levels to tetracycline", "result": "tetracycline-dependent increase in GFP levels"}, {"measurement": "GFP silencing", "result": "down-regulated GFP"}]}
{"molecule": "B3", "values": [{"measurement": "GFP silencing", "result": "preserved silencing"}, {"measurement": "response of GFP levels to theophylline", "result": "preserved silencing and the theophylline response"}]}
{"molecule": "B4", "values": [{"measurement": "GFP silencing", "result": "completely abolished silencing"}]}
{"molecule": "B5", "values": [{"measurement": "GFP silencing", "result": "silence GFP with comparable strength"}, {"measurement": "response of GFP levels to theophylline", "result": "insensitive to theophylline"}]}
{"molecule": "B6", "values": [{"measurement": "response of GFP levels to hypoxanthine", "result": "no effect"}]}
{"molecule": "B7", "values": [{"measurement": "GFP silencing", "result": "abolished silencing"}, {"measurement": "GFP silencing versus miRNA copy number", "setting": "up to four copies separated by 112 nt spacer", "result": "no effect on GFP levels"}]}
{"molecule": "B8", "values": [{"measurement": "response of GFP levels to tetracycline", "result": "negligible tetracycline dependence"}]}
